Measurements taken from patent US20240216513A1, “FATTY ACID-BIFUNCTIONAL DEGRADER CONJUGATES AND THEIR METHODS OF USE” (Novartis AG, priority 2021, published 2024).
Marks after values point to notes of the source that are not given here.

Assays:
BTK C481S = target: T1, BTK C481S (Homo sapiens, UniProt Q06187, C481S); assay: PD screen in TMD8 BTK C481S mutant tumor-bearing mice, BTK levels and compound concentrations in blood and tumor; type: in vivo, mouse
T1 construct: endogenous in cells; host or cells: TMD8 BTK C481S mutant tumour xenografts in mice
Procedure: All animal studies were conducted in accordance with ethics and procedures covered by permit nos. BS-1975 issued by the Kantonales Veterinäramt Basel-Stadt and in strict adherence to guidelines of the Eidgenössisches Tierschutzgesetz and the Eidgenössische Tierschutzverordnung, Switzerland. All animals had access to food and water ad libitum and were identified with transponders. They were housed in a specific pathogen-free facility with a 12-h light/12-h dark cycle. For PD screen experiments in TMD8 BTK C481S mutant tumor-bearing mice, FAC was injected once. Animals were randomized into groups of 2 and tissue samples collected at day 0, 4, 7 and in some studies day 10 as well. Blood samples were collected and tumors were excised, weighed, frozen in liquid nitrogen and cryogenic dry pulverized with the CryoPrep™ system (model CP-02, Covaris). Concentrations of compounds in blood and tumors were determined by UPLC/MS-MS and BTK levels were analyzed by Meso Scale Discovery.

[1] = BTK FAC plasma stability assay, mouse plasma; type: in vitro ADME; details: for Plasma stability (h) mouse: incubation to 24 h
Method in brief: (§1)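 Compound from a 500 µM acetonitrile:water working solution was spiked into K3-EDTA plasma or Dulbecco's PBS and incubated with shaking at 38 °C. Samples taken at 0, 2, 6 and 24 h were precipitated with cold acetonitrile containing glyburide internal standard. Semi-quantitative LC-MS/MS used analyte:internal standard peak area ratios.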

[2] = BTK FAC plasma stability assay, cyno plasma; type: in vitro ADME, cynomolgus monkey
[3] = BTK FAC plasma stability assay, rat plasma; type: in vitro ADME; details: for Plasma stability (h) rat: incubation to 24 h
Method in brief: as §1

[4] = BTK FAC plasma stability assay, dog plasma; type: in vitro ADME
[5] = BTK FAC plasma stability assay, PBS buffer arm; type: physicochemical; details: for Plasma stability (h) PBS: incubation to 24 h
Method in brief: as §1

T1 sequence (Q06187 whole entry C481S): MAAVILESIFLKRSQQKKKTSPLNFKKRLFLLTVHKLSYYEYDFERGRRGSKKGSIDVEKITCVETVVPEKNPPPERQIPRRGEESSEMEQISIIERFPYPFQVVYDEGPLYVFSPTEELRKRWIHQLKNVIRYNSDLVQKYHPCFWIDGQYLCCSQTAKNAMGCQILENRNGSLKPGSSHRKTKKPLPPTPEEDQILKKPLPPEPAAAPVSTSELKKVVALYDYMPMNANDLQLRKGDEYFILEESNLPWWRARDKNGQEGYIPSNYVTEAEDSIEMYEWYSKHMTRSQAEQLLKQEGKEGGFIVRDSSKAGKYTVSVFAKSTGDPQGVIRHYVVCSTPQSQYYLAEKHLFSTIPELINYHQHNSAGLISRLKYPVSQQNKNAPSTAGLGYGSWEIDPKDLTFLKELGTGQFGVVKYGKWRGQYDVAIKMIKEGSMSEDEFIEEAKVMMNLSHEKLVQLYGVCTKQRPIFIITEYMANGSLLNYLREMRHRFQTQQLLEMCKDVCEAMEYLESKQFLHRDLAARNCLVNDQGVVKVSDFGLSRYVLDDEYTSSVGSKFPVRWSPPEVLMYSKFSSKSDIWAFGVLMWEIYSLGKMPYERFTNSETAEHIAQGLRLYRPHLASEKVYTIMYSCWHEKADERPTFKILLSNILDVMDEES

Structure (SMILES)	Duration of BTK degradation in mouse ≥90% (days) (BTK C481S; i.v., 50 umol/kg)	% Release of degrader after 24 h mouse [1] [%]	Plasma stability (h) mouse [1] [h]	Plasma stability (h) cyno [2] [h]	% Release of degrader after 24 h cyno [2] [%]	% Release of degrader after 24 h rat [3] [%]	Plasma stability (h) rat [3] [h]	Plasma stability (h) dog [4] [h]	% Release of degrader after 24 h dog [4] [%]	% Release of degrader after 24 h PBS [5] [%]	Plasma stability (h) PBS [5] [h]	Duration of BTK degradation in mouse ≥90% (BTK C481S; i.v., 50 umol/kg) [days]	Duration of BTK degradation in mouse ≥90% (BTK C481S; i.v., 25 umol/kg) [days]	Duration of BTK degradation in mouse ≥90% (BTK C481S; s.c., 25 umol/kg) [days]
CCCCCCCCCCCN(C(=O)CCCCCCCCCC(=O)O)C(CCC(=O)NCCOCCOCCOCCOCCOCCOCCOCCOCCOCCOCCOCCOCCC(=O)N[C@@H](C)CC(=O)OC(C)(C)c1ccc(C(=O)Nc2cc(F)cc(-c3ncnc4[nH]c(-c5ccc(CCN6CCC7(CC6)CCN(C(=O)c6ccc(OC)c(N8CCC(=O)NC8=O)c6)CC7)cc5)cc34)c2C)c(F)c1)C(=O)O (stereo partly drawn) [Example A20, (6S)-51-Carboxy-2-(4-((3-(6-(4-(2-(9-(3-(2,4-dioxotetrahydropyrimidin-1(2H)-yl)-4-methoxybenzoyl)-3,9-diazaspiro[5.5]undecan-3-yl)ethyl)phenyl)-7H-pyrrolo[2,3-d]pyrimidin-4-yl)-5-fluoro-2-methylphenyl)carbamoyl)-3-fluorophenyl)-2,6-dimethyl-4,8,48,53-tetraoxo-52-undecyl-3,11,14,17,20,23,26,29,32,35,38,41,44-tridecaoxa-7,47,52-triazatrihexacontan-63-oic acid]	7* days	0.5	>48	>48	0.2	0.3	>48	>48	0.4	0.2	>48			
CCCCCCCCCCCN(C(=O)CCCCCCCCCC(=O)O)C(CCC(=O)NCCOCCOCCOCCOCCOCCOCCOCCOCCOCCOCCOCCOCCC(=O)N1CCC(CC(=O)OC(C)(C)c2ccc(C(=O)Nc3cc(F)cc(-c4ncnc5[nH]c(-c6ccc(CCN7CCC8(CC7)CCN(C(=O)c7ccc(OC)c(N9CCC(=O)NC9=O)c7)CC8)cc6)cc45)c3C)c(F)c2)CC1)C(=O)O (stereo not shown) [Example A21, 44-Carboxy-1-(4-(2-((2-(4-((3-(6-(4-(2-(9-(3-(2,4-dioxotetrahydropyrimidin-1(2H)-yl)-4-methoxybenzoyl)-3,9-diazaspiro[5.5]undecan-3-yl)ethyl)phenyl)-7H-pyrrolo[2,3-d]pyrimidin-4-yl)-5-fluoro-2-methylphenyl)carbamoyl)-3-fluorophenyl)propan-2-yl)oxy)-2-oxoethyl)piperidin-1-yl)-1,41,46-trioxo-45-undecyl-4,7,10,13,16,19,22,25,28,31,34,37-dodecaoxa-40,45-diazahexapentacontan-56-oic acid]		1.9	>48	>48	0.4	0.5	>48	>48	0.3	0.2	>48	<4		
CCCCCCCCCCCN(C(=O)CCCCCCCCCC(=O)O)C(CCC(=O)NCCOCCOCCOCCOCCOCCOCCOCCOCCOCCOCCOCCOCCC(=O)N(CC)CC(=O)OC(C)(C)c1ccc(C(=O)Nc2cc(F)cc(-c3ncnc4[nH]c(-c5ccc(CCN6CCC7(CC6)CCN(C(=O)c6ccc(OC)c(N8CCC(=O)NC8=O)c6)CC7)cc5)cc34)c2C)c(F)c1)C(=O)O (stereo not shown) [Example A13, 50-Carboxy-2-(4-((3-(6-(4-(2-(9-(3-(2,4-dioxotetrahydropyrimidin-1(2H)-yl)-4-methoxybenzoyl)-3,9-diazaspiro[5.5]undecan-3-yl)ethyl)phenyl)-7H-pyrrolo[2,3-d]pyrimidin-4-yl)-5-fluoro-2-methylphenyl)carbamoyl)-3-fluorophenyl)-6-ethyl-2-methyl-4,7,47,52-tetraoxo-51-undecyl-3,10,13,16,19,22,25,28,31,34,37,40,43-tridecaoxa-6,46,51-triazadohexacontan-62-oic acid]		3.7	>48	>48	2.5	2	>48	>48	2.7	1.4	>48	7		
CCCCCCCCCCCN(C(=O)CCCCCCCCCC(=O)O)C(CCC(=O)NCCOCCOCCOCCOCCOCCOCCOCCOCCOCCOCCOCCOCCC(=O)N[C@H](C)C(=O)OC(C)(C)c1ccc(C(=O)Nc2cc(F)cc(-c3ncnc4[nH]c(-c5ccc(CCN6CCC7(CC6)CCN(C(=O)c6ccc(OC)c(N8CCC(=O)NC8=O)c6)CC7)cc5)cc34)c2C)c(F)c1)C(=O)O (stereo partly drawn) [Example A17, (5R)-50-Carboxy-2-(4-((3-(6-(4-(2-(9-(3-(2,4-dioxotetrahydropyrimidin-1(2H)-yl)-4-methoxybenzoyl)-3,9-diazaspiro[5.5]undecan-3-yl)ethyl)phenyl)-7H-pyrrolo[2,3-d]pyrimidin-4-yl)-5-fluoro-2-methylphenyl)carbamoyl)-3-fluorophenyl)-2,5-dimethyl-4,7,47,52-tetraoxo-51-undecyl-3,10,13,16,19,22,25,28,31,34,37,40,43-tridecaoxa-6,46,51-triazadohexacontan-62-oic acid]		2.3	>48			2.5	>48	33.3	3.7	1.2	>48		4	
CCCCCCCCCCCN(C(=O)CCCCCCCCCC(=O)O)[C@@H](CCC(=O)NCCOCCOCCOCCOCCOCCOCCOCCOCCOCCOCCOCCOCCC(=O)N(CCC(=O)OC(C)(C)c1ccc(C(=O)Nc2cc(F)cc(-c3ncnc4[nH]c(-c5ccc(CCN6CCC7(CC6)CCN(C(=O)c6ccc(OC)c(N8CCC(=O)NC8=O)c6)CC7)cc5)cc34)c2C)c(F)c1)CC(=O)O)C(=O)O [Example A24, (S)-2-(3-((2-(4-((3-(6-(4-(2-(9-(3-(2,4-Dioxotetrahydropyrimidin-1(2H)-yl)-4-methoxybenzoyl)-3,9-diazaspiro[5.5]undecan-3-yl)ethyl)phenyl)-7H-pyrrolo[2,3-d]pyrimidin-4-yl)-5-fluoro-2-methylphenyl)carbamoyl)-3-fluorophenyl)propan-2-yl)oxy)-3-oxopropyl)-3,43,48-trioxo-47-undecyl-6,9,12,15,18,21,24,27,30,33,36,39-dodecaoxa-2,42,47-triazaheptapentacontane-1,46,57-tricarboxylic acid]		7.4	>48			7.2	>48	>48	5.9	2.8	>48		10	10
CCCCCCCCCCCN(C(=O)CCCCCCCCCC(=O)O)C(CCC(=O)NCCOCCOCCOCCOCCOCCOCCOCCOCCOCCOCCOCCOCCC(=O)NCc1cc(C(=O)OC(C)(C)c2ccc(C(=O)Nc3cc(F)cc(-c4ncnc5[nH]c(-c6ccc(CCN7CCC8(CC7)CCN(C(=O)c7ccc(OC)c(N9CCC(=O)NC9=O)c7)CC8)cc6)cc45)c3C)c(F)c2)ccn1)C(=O)O (stereo not shown) [Example A26, 46-Carboxy-1-(4-(((2-(4-((3-(6-(4-(2-(9-(3-(2,4-dioxotetrahydropyrimidin-1(2H)-yl)-4-methoxybenzoyl)-3,9-diazaspiro[5.5]undecan-3-yl)ethyl)phenyl)-7H-pyrrolo[2,3-d]pyrimidin-4-yl)-5-fluoro-2-methylphenyl)carbamoyl)-3-fluorophenyl)propan-2-yl)oxy)carbonyl)pyridin-2-yl)-3,43,48-trioxo-47-undecyl-6,9,12,15,18,21,24,27,30,33,36,39-dodecaoxa-2,42,47-triazaoctapentacontan-58-oic acid]		20.4	30.5			7.6	>48	39.2	10.9	7	>48		7	
